These results are taken from patent publication US20200283478A1 (Genentech, published 2020).

Holding throughout (experiment): phage spot ELISA
For assay [1], the target named is T1, proprotein convertase subtilisin/kexin type 9 (PCSK9) (human, UniProt Q8NBP7 31-692).
T1 construct: His-tagged full-length PCSK9 in TR-FRET and SPR, biotinylated in phage ELISA; secreted protein is autoprocessed (prodomain plus catalytic/CRD chain starting at S153); also called rec.PCSK9; His-PCSK9
Excerpt: The binding signal of the same phage particle to NeutrAvidin was considered as non-specific binding (“noise”).

Assay [2] has as its target T2, PCSK9Δhelix (human, Chemically biotinylated in the phage ELISAs; the site is not given.).
T2 construct: construct M1-Q692 with engineered TEV site, cleaved by TEV; also called His-PCSK9Δhelix; open groove PCSK9Δhelix

Assay [3] has as its target T1, proprotein convertase subtilisin/kexin …. This is another data set of the same source.
The target in assay [4] is T2, PCSK9Δhelix. This is another data set of the same source.

Read-outs that look alike come from different tables or passages of the source.

T2 sequence (prodomain, as listed by the source mutant limits assumed, chain 1 of 2): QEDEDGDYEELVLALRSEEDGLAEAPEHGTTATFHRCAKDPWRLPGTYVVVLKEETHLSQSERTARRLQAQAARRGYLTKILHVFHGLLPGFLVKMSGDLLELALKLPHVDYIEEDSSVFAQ
T2 sequence (chain, as listed by the source mutant limits assumed, chain 2 of 2): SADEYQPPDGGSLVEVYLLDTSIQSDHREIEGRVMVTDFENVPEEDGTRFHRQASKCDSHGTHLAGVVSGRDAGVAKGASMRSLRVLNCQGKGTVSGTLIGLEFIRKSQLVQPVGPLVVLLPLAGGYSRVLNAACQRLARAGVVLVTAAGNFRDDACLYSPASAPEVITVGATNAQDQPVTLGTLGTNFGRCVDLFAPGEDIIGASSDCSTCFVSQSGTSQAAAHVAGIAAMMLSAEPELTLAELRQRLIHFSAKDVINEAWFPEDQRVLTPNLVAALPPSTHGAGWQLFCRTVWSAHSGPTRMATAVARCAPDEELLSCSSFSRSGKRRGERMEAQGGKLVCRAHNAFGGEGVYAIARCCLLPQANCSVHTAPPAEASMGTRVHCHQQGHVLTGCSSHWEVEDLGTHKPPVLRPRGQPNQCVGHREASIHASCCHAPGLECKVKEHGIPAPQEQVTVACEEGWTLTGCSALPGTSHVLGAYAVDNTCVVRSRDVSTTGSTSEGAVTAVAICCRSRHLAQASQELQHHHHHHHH
T1 sequence (Q8NBP7 other isoform, or with tags, fused parts or gaps limits assumed): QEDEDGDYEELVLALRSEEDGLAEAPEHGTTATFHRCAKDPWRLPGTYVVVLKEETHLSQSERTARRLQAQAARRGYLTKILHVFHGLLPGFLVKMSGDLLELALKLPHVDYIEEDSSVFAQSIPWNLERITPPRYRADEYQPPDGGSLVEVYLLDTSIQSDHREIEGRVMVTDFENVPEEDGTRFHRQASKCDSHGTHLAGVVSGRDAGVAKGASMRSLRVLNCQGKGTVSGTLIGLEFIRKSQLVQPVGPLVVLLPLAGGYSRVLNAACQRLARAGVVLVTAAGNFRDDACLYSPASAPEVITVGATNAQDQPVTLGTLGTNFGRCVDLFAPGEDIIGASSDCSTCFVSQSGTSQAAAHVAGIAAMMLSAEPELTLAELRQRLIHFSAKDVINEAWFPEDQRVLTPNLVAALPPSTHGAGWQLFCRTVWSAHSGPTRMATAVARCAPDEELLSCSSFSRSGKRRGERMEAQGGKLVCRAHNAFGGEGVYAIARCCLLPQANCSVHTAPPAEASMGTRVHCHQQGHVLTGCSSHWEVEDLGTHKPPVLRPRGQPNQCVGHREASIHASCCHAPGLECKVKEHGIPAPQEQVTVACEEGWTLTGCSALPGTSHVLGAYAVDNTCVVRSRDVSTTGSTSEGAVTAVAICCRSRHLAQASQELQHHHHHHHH

B1: phage-displayed Pep2-8 (on p8) (peptide)
peptide: TVFTSWEEYLDWV
notes: also called phage displaying Pep2-8
With B1, in assay [1], the ELISA amounted to 2.98 and the s/n ratio came to 30. In the assay with PCSK9Δhelix [2], the ELISA was found to be 2.1 and the s/n ratio worked out at 21.8.

B2: phage-displayed Pep2-8V2A (peptide)
peptide: TAFTSWEEYLDWV
For the molecule B2, in assay [1], the ELISA came to 1.27 and the s/n ratio is 16.7. Further, in the assay with PCSK9Δhelix [2], the ELISA was determined as 0.07 and the s/n ratio was determined as 1.07.

B3: SEQ ID NO 324 (peptide)
peptide: TAFTSWEEYLDWVGSGEHQFYSYRGVDVYR
Take B3: the results for the ELISA (in assay [1]; with PCSK9Δhelix [2]) were 2.55 and 2.66, respectively. For the same molecule, the s/n ratio in assay [1] was 22.3; with PCSK9Δhelix [2], 26.2.

B4: SEQ ID NO 328 (peptide)
peptide: TAFTSWEEYLDWVGSGCPFYDWRCSDFS
On to B4, for which, in assay [1], the ELISA turned out to be 2.8 and the s/n ratio came to 25. Further, in the assay with PCSK9Δhelix [2], the ELISA was determined as 2.78 and the s/n ratio stood at 26.5.

B5: SEQ ID NO 327 (peptide)
peptide: TAFTSWEEYLDWVGSGACLNHFVSGNMIRC
As for B5, in assay [1], the ELISA came to 2.87 and the s/n ratio stood at 26.1. Besides, in the assay with PCSK9Δhelix [2], the ELISA came out at 1.38 and the s/n ratio amounted to 8.17.

B6: SEQ ID NO 323 (peptide)
peptide: TAFTSWEEYLDWVGSGGCVKYRGSVSCQESKT
For B6, the ELISA in assay [1] turned out to be 2.85; with PCSK9Δhelix [2] it was 2.73. Further, the s/n ratio amounted to 18 in assay [1] and 24.2 in the assay with PCSK9Δhelix [2].

B7: SEQ ID NO 365 (peptide)
peptide: TAFTSWEEYLDWVGSGRCGLAWCVVLVDQ
Consider B7, for which the ELISA in assay [3] worked out at 2.62; with PCSK9Δhelix [4], 2.8. Further, the s/n ratio in assay [3] is 20.8; in the assay with PCSK9Δhelix [4] it was 28.5.

B8: SEQ ID NO 329 (peptide)
peptide: TAFTSWEEYLDWVGSGNVRCYRDVPSCS
Consider B8, for which, in assay [1], the ELISA stood at 2.66 and the s/n ratio is 25.9. Moreover, in the assay with PCSK9Δhelix [2], the ELISA turned out to be 2.68 and the s/n ratio came to 26.3.

B9: SEQ ID NO 325 (peptide)
peptide: TAFTSWEEYLDWVGSGKNNYAYLINMPRAPGI
With B9, in assay [1], the ELISA worked out at 2.54 and the s/n ratio is 24.7. In the assay with PCSK9Δhelix [2], the ELISA worked out at 2.54 and the s/n ratio was found to be 29.1.

B10: SEQ ID NO 330 (peptide)
peptide: TAFTSWEEYLDWVGSGEDVVCYGRVDYMPLCV
With B10, in assay [1], the ELISA is 2.67 and the s/n ratio was found to be 25.2. Moreover, in the assay with PCSK9Δhelix [2], the ELISA came out at 2.7 and the s/n ratio came to 24.8.

B11: SEQ ID NO 361 (peptide)
peptide: TAFTSWEEYLDWVGSGPTSGLTPS
As to B11, the ELISA in assay [3] came out at 2.66; with PCSK9Δhelix [4] it was 0.127. The s/n ratio in assay [3] came to 27.5; with PCSK9Δhelix [4], 1.3.

B12: SEQ ID NO 363 (peptide)
peptide: TAFTSWEEYLDWVGSGQVTSLPQA
Turning to B12, in assay [3], the ELISA is 2.46 and the s/n ratio came to 27.9. Moreover, in the assay with PCSK9Δhelix [4], the ELISA came out at 0.11 and the s/n ratio was found to be 1.21.

B13: SEQ ID NO 360 (peptide)
peptide: TAFTSWEEYLDWVGSGDCLRYRVGSSCS
For the molecule B13, the ELISA in assay [3] was determined as 3.04; with PCSK9Δhelix [4] it was 2.87. Besides, the s/n ratio in assay [3] was 29.6; with PCSK9Δhelix [4] it was 28.9.

B14: SEQ ID NO 362 (peptide)
peptide: TAFTSWEEYLDWVGSGRCESKGWANTCVSE
Regarding B14, in assay [3], the ELISA came to 2.98 and the s/n ratio came to 20.7. In the assay with PCSK9Δhelix [4], the ELISA came out at 2.56 and the s/n ratio came out at 15.8.
